From publication PMC4161306, “Regulation of Arabidopsis Flowering by the Histone Mark Readers MRG1/2 via Interaction with CONSTANS to Modulate FT Expression” (PLoS Genetics, 2014) come the findings set out here.

Where no end group is shown, it is not given here. Me3 = trimethyl-lysine; Me2 = dimethyl-lysine

Test [1] addresses T1, MRG2 chromodomain (residues 41-123) (Arabidopsis thaliana, UniProt Q4V3E2 41-123).
T1 construct: Arabidopsis thaliana MRG2 chromodomain, residues 41-123; Construct of the ITC; source: cloned into pET28-SMT3, purified, tag removed
T1 sequence (looked up): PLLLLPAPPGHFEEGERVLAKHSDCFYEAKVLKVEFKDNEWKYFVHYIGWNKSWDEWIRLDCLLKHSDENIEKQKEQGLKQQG
Briefly: ITC; 25 C, MicroCal iTC200; 50 mM Tris pH 8.0, 100 mM NaCl; 0.2-0.4 mM protein in the cell, 2-4 mM peptide injected in 2 ul aliquots (20 injections); one-site model. As to conditions: both partners purified. In general terms: In ITC the heat of successive injections is recorded.

For a further test, the target named is T2, GST-fused CONSTANS (CO) (Arabidopsis thaliana, UniProt Q39057 1-373).
T2 construct: Arabidopsis transcription factor CONSTANS (CO); CO cDNA amplified with primers CO-1/CO-2; also called GST-CO; source: E. coli, pGEX-4T-1, purified
T2 sequence (looked up): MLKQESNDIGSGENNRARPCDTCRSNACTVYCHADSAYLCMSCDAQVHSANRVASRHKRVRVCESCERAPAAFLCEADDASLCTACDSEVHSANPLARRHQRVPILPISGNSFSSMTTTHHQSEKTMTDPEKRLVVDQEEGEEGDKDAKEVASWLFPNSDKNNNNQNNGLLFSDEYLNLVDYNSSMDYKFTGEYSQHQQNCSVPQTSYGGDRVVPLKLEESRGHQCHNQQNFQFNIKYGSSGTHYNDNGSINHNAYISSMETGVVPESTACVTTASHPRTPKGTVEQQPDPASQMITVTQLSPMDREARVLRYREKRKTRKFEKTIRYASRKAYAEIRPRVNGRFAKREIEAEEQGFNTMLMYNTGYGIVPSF
Description: pull-down; GST-fused CO (or GST alone) with His-tagged MRG2, MRG2C or MRG2N, purified from E. coli; protocol of ref. 51. As to conditions: both partners purified.

B1: H3K27me3 peptide (residues 23-31) (peptide)
chain: KAARK(Me3)SAPA
As usually defined, the Kd is the constant that tells how readily two partners part at equilibrium. B1: the Kd in test [1] is 2.5 mM.

B2: His-tagged MRG2 (natural protein, Arabidopsis thaliana, UniProt Q4V3E2 1-327, looked up)
chain: MGSPNAAAETDLTTDDFIGDTRRDSGSDTETNTDCDGEDLPLLLLPAPPGHFEEGERVLAKHSDCFYEAKVLKVEFKDNEWKYFVHYIGWNKSWDEWIRLDCLLKHSDENIEKQKEQGLKQQGIKSAMAWKVSKMKPRSPNVARGRKRKQDSVDTEKNVLPSDNLLSFNIPPALRKQLLDDFEFVTQMQKLVQLPRSPNVDGILKKYIDSQMKKHGRVTDSLEEILKGLRCYFDKALPVMLLYNNERKQYEESVSGGVSPSTVYGAEHLLRLFVKLPELLVHVNMAEETLKELQDNFVDILRFLRKNQSVLFVSTYKAVEEMEKKEG
notes: Arabidopsis MRG2 cDNA amplified with primers MRG2-1/MRG2-10; MRG2-1 is the forward primer of MRG2N (cDNA from nucleotide 1) and MRG2-10 the reverse primer of MRG2C (cDNA to nucleotide 984); also called MRG2 tagged with multiple His residues; His-MRG2; source: E. coli, pET-30a, purified (His tag)
For B2, the binding result with GST-fused CONSTANS (CO) is “binds”.

B3: His-tagged MRG2C (MRG domain of MRG2) (domain or fragment, Arabidopsis thaliana, UniProt Q4V3E2 148-327, looked up)
chain: RKQDSVDTEKNVLPSDNLLSFNIPPALRKQLLDDFEFVTQMQKLVQLPRSPNVDGILKKYIDSQMKKHGRVTDSLEEILKGLRCYFDKALPVMLLYNNERKQYEESVSGGVSPSTVYGAEHLLRLFVKLPELLVHVNMAEETLKELQDNFVDILRFLRKNQSVLFVSTYKAVEEMEKKEG
notes: Arabidopsis MRG2; MRG2C is cDNA 442-984, which are nucleotides, i.e. from residue 148 to the C-terminus; holds the MRG domain; source: E. coli, pET-30a, purified (His tag)
For the molecule B3, the binding result with GST-fused CONSTANS (CO) is on record as “binds”.

B4: H3K9me3 peptide (residues 4-13) (peptide)
chain: KQTARK(Me3)STGG
On to B4, for which the Kd in test [1] came to 1.2 mM.

B5: H3K4me2 peptide (residues 1-9) (peptide)
chain: ARTK(Me2)QTARK
Molecule B5 returned a Kd in test [1] of 2.4 mM.
